± gives the uncertainty stated by the source.

The nature of this data set: amyloid nucleation score (Sup35N fusion, yeast selection) (log enrichment); library NNK2; higher = more nucleation; inactive = no reads after selection. A digest of the protocol:
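For the nucleation score, DiMSum gave the log enrichment of output over input reads, centred on the mode score of non-aggregating sequences. Psi-negative yeast expressing Sup35N fused to peptides of 20 random codons were induced with 100 μM copper sulfate for 24 hours and grown 7 days at 30°C on medium lacking adenine and uracil. Input and output plasmid inserts were Illumina-sequenced, and sequences with under 100 input reads were excluded.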
WFPLGQHEKAEILSLMIVDR: the amyloid nucleation score is -0.154 ± 0.49.

Turning to WFSVVILLNSTMEYYQYLV, the amyloid nucleation score is -0.128 ± 0.45.

Consider WFWNGLFNIRTVLDMHALCT, for which the amyloid nucleation score was 4.11 ± 0.088.

In the case of WFYLCMFGAYLWRVRFDIRK, the amyloid nucleation score is -0.428 ± 0.34.

With WGAVMACE, the amyloid nucleation score came to 0.756 ± 0.49.

WGFIVDFILSGRRPAGYQLL had an amyloid nucleation score of 0.309 ± 0.8.

Take WGICSTEVSVIEWDWNGYQF: the amyloid nucleation score was -1.14 ± 1.1.

Consider WGKLRGIPAYDYSLTGCLYV, for which the amyloid nucleation score came out at 0.647 ± 0.8.

Consider WGNILW, for which the amyloid nucleation score entry was “inactive”.

WGRWSHRWAFHYRACS: the amyloid nucleation score was -0.879 ± 0.39.

On to WGSEAHTDRVVQYWILALQR, for which the amyloid nucleation score stood at 1.19 ± 0.12.

As to WHDNSSNGTGEGNFVRPVPV, the amyloid nucleation score is 1.13 ± 0.11.

Regarding WHGQQDLDYYHFT, the amyloid nucleation score result was “inactive”.

WHIFRNYAFIRVSM had an amyloid nucleation score of 0.036 ± 0.46.

Take WIFFHGGRMRTCYRDAVGEV: the amyloid nucleation score is -0.484 ± 0.36.

As for WISNAWLYLWKHR, the amyloid nucleation score is 0.586 ± 0.81.

Substance WIWEKSHWSENISMVRCDVS registered an amyloid nucleation score of 0.379 ± 0.55.

Take WKVVSEIWIMGTSSTFVTDH: the amyloid nucleation score turned out to be 1.11 ± 0.12.

As for WLAICVARWSETYCMFVWTT, the amyloid nucleation score is -0.441 ± 1.1.

For the substance WLCYRGEFRYFDPVGNDLRN, the amyloid nucleation score entry is “inactive”.

WLFIVFSTLS: the amyloid nucleation score was -0.19 ± 1.

Regarding WLHTTFSRSICSISIHRALE, the amyloid nucleation score was -0.07 ± 0.48.

On to WLLWS, for which the amyloid nucleation score stood at 0.472 ± 0.26.

Substance WLRLPICDLQLLNWADLRFV registered an amyloid nucleation score of 0.236 ± 1.1.

The substance WLVFQFYVRGRREMVS returned an amyloid nucleation score of 1.4 ± 0.2.

On to WMSVG, for which the amyloid nucleation score was -0.081 ± 1.1.

Regarding WMTRIFTINVGNWWGFMHSR, the amyloid nucleation score is 3.02 ± 0.056.

Take WNCLICRYVNVCKLLCFYY: the amyloid nucleation score stood at 6.505 ± 0.031.

On to WNEIE, for which the amyloid nucleation score entry was “inactive”.

Take WNGYNGRDMCGKLCGVCTLG: the amyloid nucleation score amounted to 0.219 ± 0.43.

Regarding WNKYLCFKFRFYLPFVNYWL, the amyloid nucleation score result was “inactive”.

As for WNLFMQYAFYRMDLASK, the amyloid nucleation score is -0.689 ± 1.1.

In the case of WPLRL, the amyloid nucleation score was determined as 0.348 ± 0.31.

Turning to WQENFSHCNLSMLCEVNLSK, the amyloid nucleation score is -0.44 ± 0.49.

As for WQHGVRSGQQECPRLEGNRV, the amyloid nucleation score is 0.379 ± 0.23.

In turn, WRGFTECRVKLRYSGSGQFC gave an amyloid nucleation score of 2.92 ± 0.058.

Take WRQLRSPVYRPYCL: the amyloid nucleation score is -0.124 ± 0.32.

In turn, WRYIAVNFSNAFNDLVDSCA had an amyloid nucleation score of 0.117 ± 0.79.

In the case of WSCYKNWG, the amyloid nucleation score was -1.13 ± 0.5.

Regarding WSEVGWFIYDKFREFVFSIK, the amyloid nucleation score result was “inactive”.

For WSGQPGFSTYGICLLSVRLK, the amyloid nucleation score was -0.286 ± 0.65.

Substance WSITGG registered an amyloid nucleation score of 0.477 ± 0.66.

WSLLV came in with an amyloid nucleation score of 0.478 ± 0.8.

Consider WSLYHASERENIRPALTSIW, for which the amyloid nucleation score was found to be 0.325 ± 0.21.

Take WSLYLVVLAQ: the amyloid nucleation score was determined as 0.294 ± 0.51.

In the case of WSNSYHRLILWRQCIFGLLV, the amyloid nucleation score was determined as 2.76 ± 0.081.

With WSRIGG, the amyloid nucleation score was -0.498 ± 0.63.

WSSTVKSVKSAGAP came in with an amyloid nucleation score of 0.475 ± 0.38.

On to WSTFSTFTGYSA, for which the amyloid nucleation score was -0.335 ± 0.5.

Take WSVCKRLCNVEMLAENLAID: the amyloid nucleation score was -0.67 ± 0.79.

For the substance WSVVLWDVEGYWASASSQLW, the amyloid nucleation score worked out at 0.907 ± 0.35.

Turning to WSYCVNERSVIKQGLTCAYV, the amyloid nucleation score was -0.28 ± 0.76.

WTDTGMTYLFCNLFWLACGI: the amyloid nucleation score is 5.634 ± 0.03.

As to WTHVHTRKDSLLSTGNCVPI, the amyloid nucleation score entry was “inactive”.

In turn, WTTYLGSFKWRNRVKWWPAP registered an amyloid nucleation score of 1.88 ± 0.18.

The substance WTYACPKRHNVIVVC returned an amyloid nucleation score of 3 ± 0.062.

Take WTYDVQGREVCYVKPYLAMW: the amyloid nucleation score stood at 1.07 ± 0.32.

The substance WVLDVSFTVVFKMIHGVVSL registered an amyloid nucleation score of 3.9 ± 0.14.

As to WVLMYDICGS, the amyloid nucleation score result was “inactive”.

For WVLVYIICFTQDDS, the amyloid nucleation score was -1.4 ± 1.1.

The substance WVSCVVCFWIDHESAALESV had an amyloid nucleation score of 8.784 ± 0.036.

Substance WVSSIGGDWGMIYSLLQLYW came in with an amyloid nucleation score of 0.205 ± 0.46.

As for WVSSQAEWGVLCGICRSLES, the amyloid nucleation score entry was “inactive”.

WVVRGWLGV displayed an amyloid nucleation score of 0.23 ± 0.38.

Take WWLYAL: the amyloid nucleation score stood at 3.74 ± 0.11.

Regarding WWYGGLEMGFIICFRIPNVI, the amyloid nucleation score is -0.606 ± 1.1.

WYFIGKCRDGVSDGMRNNVR gave an amyloid nucleation score of 0.148 ± 0.22.

For WYFPSVKIIENLW, the amyloid nucleation score came to 6.035 ± 0.038.

On to WYGFNNDTEWKNTKAFW, for which the amyloid nucleation score was 1.83 ± 0.084.

Regarding WYNCSALWESLMFNGLQAVW, the amyloid nucleation score was -0.268 ± 0.48.

In the case of YAQWYDCTSSAEKRYKKVLS, the amyloid nucleation score was -0.473 ± 0.31.

In the case of YAWKNPYSCWICR, the amyloid nucleation score is -0.174 ± 0.44.

YCCCVSMFVRTLIARDYNLN: the amyloid nucleation score turned out to be 8.154 ± 0.078.

Consider YCCTDQGFSLGYRMLWCRDN, for which the amyloid nucleation score was -1 ± 0.24.

YCERAHALICSLRQVGWVPR displayed an amyloid nucleation score of 0.719 ± 0.25.

Turning to YCGDLRCCKTHLSCRSCVSN, the amyloid nucleation score entry is “inactive”.

Substance YCITEVRWAVA had an amyloid nucleation score of 5.61 ± 0.058.

YCMFFCGCVTDPECNVPSDM gave an amyloid nucleation score of 3.49 ± 0.1.

As to YCMNLKDSTLLILKQPARST, the amyloid nucleation score was determined as 7.045 ± 0.047.

Consider YCSYQVVRGRPSVAGRDNLQ, for which the amyloid nucleation score is -0.424 ± 0.63.

Regarding YCVRVMYNKLRLHMNIVVVC, the amyloid nucleation score came to 0.705 ± 0.58.

Substance YDAMFS gave an amyloid nucleation score of 1.09 ± 0.45.

In turn, YDDKLHRPDDFGCRDHSPGM yielded an amyloid nucleation score of 0.495 ± 0.41.

In the case of YDEYF, the amyloid nucleation score result is “inactive”.

YDGAIDITTGLFLCFWVCTV: the amyloid nucleation score was found to be 3.96 ± 0.047.

Turning to YDLGLKFNSHLATWGGFYHW, the amyloid nucleation score is -0.746 ± 0.76.

With YDNKASDVMVNYLRHICVYS, the amyloid nucleation score entry was “inactive”.

Turning to YDNTEASGLSWRTLLQGAVW, the amyloid nucleation score was 0.562 ± 0.45.

YDVSYYCNCIAVLKSRLREL yielded an amyloid nucleation score of 5.203 ± 0.031.

In the case of YEGNFAHCFSLGPDHVID, the amyloid nucleation score is -0.202 ± 1.1.

YEVREFSCHGINIKMEGIYC registered an amyloid nucleation score of 1.48 ± 0.2.

Turning to YEVSIIFCRLFSILIRPGTS, the amyloid nucleation score is -1.1 ± 1.1.

YFCCVSTIARSMFLSRGSGR came in with an amyloid nucleation score of 8.771 ± 0.058.

Consider YFCSLDSMPQSSVFDYLSAL, for which the amyloid nucleation score was -0.43 ± 1.1.

For the substance YFGTLSLLKHEVA, the amyloid nucleation score was -0.289 ± 0.3.

Turning to YFKCGGHAFCVSNYARLNDF, the amyloid nucleation score was -0.573 ± 0.42.

Consider YFLGAFTYVFCACHSFCRYW, for which the amyloid nucleation score is 1.86 ± 0.15.

With YFLGMVPSFSLWYETSQSQC, the amyloid nucleation score was -0.768 ± 0.42.

Consider YFLSSFVSNWWAQYVYW, for which the amyloid nucleation score result is “inactive”.

As for YFMLPLYMMLLGYFYKTICS, the amyloid nucleation score amounted to 6.933 ± 0.067.

Substance YFNIYAVEIVLGIRLFNNVD returned an amyloid nucleation score of 1.99 ± 0.067.

YFRISTWRFRTRHLGPCERG gave an amyloid nucleation score of 5.708 ± 0.054.

These data come from the supplement of paper PMC12042874.
